The series relates to C.PvuII. The series can be described thus: competition. As to conditions: scale: % loss of shifted WT band at 10-fold excess competitor.

As for Sym CAT/CAA 126-mer, the binding signal was found to be 30.

Sym CAT/CAT 126-mer: the binding signal was found to be 30.

Consider Sym CAA/CAT 126-mer, for which the binding signal worked out at 90.

Regarding Sym CAA/CAA 126-mer, the binding signal is 90.

The record behind these values is publication PMC2647307.
